# Experimental data as given in patent publication US20110112037A1, “CRYSTAL STRUCTURE” (Heptares Therapeutics Limited BioPark, priority 2008, published 2011).
# Tests used:
# [1] = Thermal stability of β1AR point mutants (Table 3) and of β1-m23 in detergent; format: physicochemical, turkey; conditions: β1AR alanine mutants in CL2
# Excerpt: Short-chain detergents, such as nonyl- and octyl-glucosides, are the best choice for crystallisation of small membrane proteins, but β1 was unstable in them and precipitated upon detergent exchange (Warne et al 2003). We therefore expressed β1 in an Escherichia coli expression system (Grisshammer et al) and evolved it into a conformationally thermostabilised form (β1-m23) that is stable even in short-chain detergents (Serrano PNAS). […] The receptor construct that crystallised (FIG. 1) has deletions at the N-terminus, C-terminus and in cytoplasmic loop 3 to remove regions that were predicted to be unstructured (Warne et al 2003). It also contains 8 point mutations, 6 for thermostabilisation (R68^1.59S, M90^2.52V, Y227^5.58A, A282^6.27L, F327^7.38A, F338^7.49M), one for improved expression (C116^3.27L) and one for the removal of a palmitoylation site (C358^8.53A).
# The CL2 loop has been proposed to function as the switch enabling G protein activation (Burstein et al 1998) and, from the β1 structure, it is clear that this region also has an important contact to the adjacent highly conserved D^3.49R^3.50Y^3.51 motif in helix 3. […] This is mainly due to the increased distance between the Cα atoms of Arg^3.50 and Glu^6.30 in β1 (10.9 Å) and β2 (11.2 Å) compared with rhodopsin (8.7 Å). There is, however, an intrahelical interaction between Asp^3.49 and […] of the DRY motif in all three […] structures. The helical conformation of CL2 in the β1 structure positions Tyr149^3.89 sufficiently close to Asp138^3.49 of the DRY motif to allow the formation of a H-bond. Supporting evidence for this structural role of Tyr149^3.89 comes from the observation that the Y149A mutation makes β1AR much less thermally stable (Table 3). The equivalent Tyr141^3.60 in both β2 structures is in a cavity between helix 3, 4 and 6, but the biological relevance of this is unclear, due to the perturbations in this region caused by either the T4 lysozyme fusion or by the bound antibody Fab.
# m23 mutant receptor = m23 mutant receptor (Meleagris gallopavo, UniProt P07700, A282L/F327A/F338M/M90V/R68S/Y227A); conditions: FIG. 11
# physchem = format: physicochemical; conditions: aqueous buffer
# Chain of m23 mutant receptor (P07700 whole entry R68S/M90V/Y227A/A282L/F327A/F338M): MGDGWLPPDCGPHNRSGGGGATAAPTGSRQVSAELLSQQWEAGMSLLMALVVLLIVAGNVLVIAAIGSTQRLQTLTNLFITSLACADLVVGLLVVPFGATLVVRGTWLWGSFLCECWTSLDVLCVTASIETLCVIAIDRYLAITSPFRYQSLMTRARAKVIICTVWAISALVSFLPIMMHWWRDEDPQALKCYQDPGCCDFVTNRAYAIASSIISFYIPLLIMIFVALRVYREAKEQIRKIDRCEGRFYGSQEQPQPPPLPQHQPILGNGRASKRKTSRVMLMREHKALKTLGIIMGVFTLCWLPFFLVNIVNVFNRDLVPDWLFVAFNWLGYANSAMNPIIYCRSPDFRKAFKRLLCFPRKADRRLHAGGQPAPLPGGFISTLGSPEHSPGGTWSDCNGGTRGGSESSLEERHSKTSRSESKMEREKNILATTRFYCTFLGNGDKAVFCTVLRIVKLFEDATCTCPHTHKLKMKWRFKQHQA
Molecule,Stability (wild type = 100) [1],also measured
"Y149A: β1AR point mutant Y149A, much less thermally stable",1,–
Cc1ccc(OCC(O)C(C)NC(C)C)c2c1CCC2 (stereo not shown) [ICI 118551],–,effect on cAMP accumulation by m23 (m23 mutant receptor): does not depress the cAMP accumulation
R148A: β1AR point mutant R148A,89,–
F147A: β1AR point mutant F147A,128,–
S145A: β1AR point mutant S145A,68,–
Q150A: β1AR point mutant Q150A,117,–
T144A: β1AR point mutant T144A,72,–
CC(C)(C)NCC(O)COc1cccc2[nH]c(C#N)cc12 (stereo not shown) [cyanopindolol],–,solubility (physchem): 750 µM
P146A: β1AR point mutant P146A,13,–
S151A: β1AR point mutant S151A,117,–
